This assay addresses His6-Munc18a (rat, UniProt P61765 1-594). The experiment in a line: pull-down.

Chain of His6-Munc18a (P61765 whole entry): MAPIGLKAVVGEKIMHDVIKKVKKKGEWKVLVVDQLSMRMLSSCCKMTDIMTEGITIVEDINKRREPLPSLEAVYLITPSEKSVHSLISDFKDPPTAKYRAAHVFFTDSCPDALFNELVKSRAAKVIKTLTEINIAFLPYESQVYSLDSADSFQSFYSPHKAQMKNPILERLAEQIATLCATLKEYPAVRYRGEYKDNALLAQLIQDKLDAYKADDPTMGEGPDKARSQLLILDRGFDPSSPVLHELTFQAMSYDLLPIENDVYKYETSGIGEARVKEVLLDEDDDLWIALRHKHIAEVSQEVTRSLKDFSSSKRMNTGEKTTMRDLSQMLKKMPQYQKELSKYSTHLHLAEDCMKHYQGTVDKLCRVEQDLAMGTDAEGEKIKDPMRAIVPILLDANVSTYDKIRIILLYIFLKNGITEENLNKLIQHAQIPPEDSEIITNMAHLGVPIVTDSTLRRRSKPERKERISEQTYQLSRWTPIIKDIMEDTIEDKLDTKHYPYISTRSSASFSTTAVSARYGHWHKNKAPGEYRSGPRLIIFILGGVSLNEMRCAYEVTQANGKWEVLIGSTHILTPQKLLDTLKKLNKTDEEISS

B1: syntaxin3, full-length, liposome-anchored (natural protein, rat, UniProt Q08849 1-289, looked up)
chain: MKDRLEQLKAKQLTQDDDTDEVEIAIDNTAFMDEFFSEIEETRLNIDKISEHVEEAKKLYSIILSAPIPEPKTKDDLEQLTTEIKKRANNVRNKLKSMEKHIEEDEVRSSADLRIRKSQHSVLSRKFVEVMTKYNEAQVDFRERSKGRIQRQLEITGKKTTDEELEEMLESGNPAIFTSGIIDSQISKQALSEIEGRHKDIVRLESSIKELHDMFMDIAMLVENQGEMLDNIELNVMHTVDHVEKARDETKRAMKYQGQARKKLIIIIVIVVVLLGILALIIGLSVGLK
Turning to B1, the binding result is on record as “binds”.

These data come from paper PMC5651683 (The Biochemical journal, 2017).
